Laboratory results reported in US20240350441A1, “PHARMACEUTICAL FORMULATION AND A PROCESS FOR ITS PREPARATION” (SAVA HEALTHCARE LTD, priority 2021, published 2024).

Experiments:
Type in all cases: in vivo, Female Swiss Albino mice
[1] = system: Cyclophosphamide induced hepatotoxicity and renal changes; assay: Hepatic and renal parameters in cyclophosphamide induced neutropenia (Example 10); conditions: for BUN (blood urea nitrogen) / SGOT Serum glutamic oxaloacetic transaminase / SGPT (Serum glutamic pyruvic transaminase) / Serum Creatinine / Uric acid: day 10, G-CSF 2 μg s.c., others 1 tablet per animal per day for 5 days
Protocol: (§1) • 1. To induce neutropenia by administration of cyclophosphamide. • 2.
(§2) Materials: Female Swiss Albino mice weighing between 25-27 g was procured from Global Bioresearch Solutions Pvt Ltd., Pune.
(§3) On day 0, blood was withdrawn from all animals for basal hematological parameters. All the groups of animals except placebo group were injected with 150 mg/kg of cyclophosphamide through intraperitoneal route (i.p.), while group 1 was injected with water for injection, i.p. On Day 3, blood was withdrawn from all animals for Total and differential count (neutrophils, lymphocytes, and monocytes). The animals of group 2 to 7 were dosed with one additional dose of 100 mg/kg cyclophosphamide on Day 4. […] The cyclophosphamide control group was injected with water for injection from day 5 to day 9. On day 10, blood was withdrawn from all animals for total and differential count (neutrophils, lymphocytes, and monocytes), platelets, liver parameters AST (aspartate aminotransferase), ALT (alanine aminotransferase), and renal parameters—serum creatinine, blood urea nitrogen and uric acid.
(§4) • Pure Picroside 1—1 tablet was dissolved in 0.1 ml of sterile water for injection and 0.1 ml was injected as subcutaneous injection. • The degraded Picroside 1 without salt (cinnamic acid of the present disclosure)—1 tablet was dissolved in 0.1 ml of sterile water for injection and 0.1 ml was injected as subcutaneous injection. • The Cinnamic acid low dose (0.6 mg/tablet) treated tablet was dissolved in 0.1 ml of sterile water for injection and 0.1 ml was injected as subcutaneous injection. • The Cinnamic acid high dose treated (6 mg/tablet) tablet was dissolved in 0.1 ml of sterile water for injection and 0.1 ml was injected as subcutaneous injection.

[2] = system: Cyclophosphamide induced neutropenia; assay: Cyclophosphamide induced neutropenia, hematological parameters (Example 10)
Protocol: as §1, §2, §3, §4

[3] = system: Cyclophosphamide induced hepatotoxicity; assay: Cyclophosphamide induced hepatotoxicity, AST/ALT (Example 9); conditions: for ALT (alanine aminotransferase) / AST (aspartate aminotransferase): day 10, after 5 days treatment from day 5, GCSF 2 μg
Protocol: (§5) Female Swiss Albino mice were randomized into different groups based on body weight as follows: • Group 1—cyclophosphamide control (CP control), • Group 2—pure Picroside 1 treated, • Group 3—the degraded Picroside 1 with salt and • Group 4—GCSF (granulocyte colony stimulating factor) treated groups. • On day 0, blood was withdrawn from all animals for basal hematological parameters. The animals of all the groups were injected with 150 mg/kg of cyclophosphamide through intraperitoneal route (i.p.). On Day 3, blood was withdrawn from all animals for total and differential count (neutrophils, lymphocytes, and monocytes). The animals were dosed with one additional dose of 100 mg/kg cyclophosphamide on Day 4. From day 5, the animals were administered with respective treatments through oral route in water as vehicle while group 1 was administered with placebo tablets for 5 consecutive days. On day 10, blood was withdrawn from all animals for Total and differential count (neutrophils, lymphocytes, and monocytes), WBCs, Platelets and AST (aspartate aminotransferase) and ALT (alanine aminotransferase).

[4] = system: Cyclophosphamide induced neutropenia; assay: Cyclophosphamide induced neutropenia, hematological changes (Example 9)
Protocol: • 1. To induce neutropenia in mice by administration of cyclophosphamide. • 2. To determine the effect of treatments of pure Picroside 1 and the degraded Picroside 1 with salt on total WBC count, neutrophils, monocyte, lymphocytes and platelet count. • 3. To compare the effect of pure Picroside 1 and the degraded Picroside 1 with salt standard 2 μg G-CSF.
Cyclophosphamide was procured from Sigma Aldrich and G-CSF was procured from marketed formulation of Lupin limited, Lupifil (300). Female Swiss Albino mice weighing between 25-27 g were procured from National Institute of Biosciences, Pune.
as §5

[5] = Day 0, basal, G-CSF 2 μg, Picroside tablets groups
[6] = Day 3, after cyclophosphamide, before treatment, G-CSF 2 μg, Picroside tablets groups
[7] = Day 10, treated day 5 for 5 days, G-CSF 2 μg s.c., others 1 tablet per animal per day
[8] = compared to cyclophosphamide control group, Example 9
[9] = Day 0, basal, before cyclophosphamide
[10] = Day 3, after cyclophosphamide 150 mg/kg i.p., before treatment
[11] = Day 10, after 5 days treatment from day 5, GCSF 2 μg
[12] = vs CP control, cinnamic acid at both 0.6 mg/tablet low dose and 6 mg/tablet high dose
[13] = vs CP control, day 10, cinnamic acid at both 0.6 mg/tablet low dose and 6 mg/tablet high dose

O=C(/C=C/c1ccccc1)OC[C@H]1O[C@@H](O[C@@H]2OC=C[C@H]3[C@H](O)[C@@H]4O[C@]4(CO)[C@@H]23)[C@H](O)[C@@H](O)[C@@H]1O [Pure Picroside 1, Picroside 1]
BUN (blood urea nitrogen) [1]: 9.483 mmol/L | SGOT Serum glutamic oxaloacetic transaminase [1]: 25.67 IU/L | SGPT (Serum glutamic pyruvic transaminase) [1]: 28.5 IU/L | Serum Creatinine [1]: 46.8 µM | Uric acid [1]: 30.00 mg/L | Hepatic and renal parameters in neutropenic animal model ([1]; inference from table 8B, as compared to GCSF): improved hepatic and renal parameters | % Lymphocytes [2, 5]: 44.33% | % Monocytes [2, 5]: 6.00% | % Neutrophils [2, 5]: 41.00% | No of Platelets [2, 5]: 735700 per cu · mm of blood | Total WBC Count [2, 5]: 7301 per cu · mm of blood | % Lymphocytes [2, 6]: 84% | % Monocytes [2, 6]: 1.50% | % Neutrophils [2, 6]: 6.50% | No of Platelets [2, 6]: 631700 per cu · mm of blood | Total WBC Count [2, 6]: 2365 per cu · mm of blood | % Lymphocytes [2, 7]: 58.67% | % Monocytes [2, 7]: 5.00% | % Neutrophils [2, 7]: 28.33% | No of Platelets [2, 7]: 626800 per cu · mm of blood | Total WBC Count [2, 7]: 3674 per cu · mm of blood | Anti-neutropenic activity (words) ([2]; inference from table 8A): shows better anti-neutropenic activity | Effect on ALT [3, 8]: significant reversal (p<0.001) | Effect on AST [3, 8]: significant (p<0.001) decrease in AST | ALT (alanine aminotransferase) [3]: 37.32 ± 0.66 IU/L | AST (aspartate aminotransferase) [3]: 43.66 ± 2.68 IU/L | % Lymphocytes [4, 9]: 40.32 ± 1.56% | % Monocytes [4, 9]: 7.32 ± 0.32^ % | % Neutrophils [4, 9]: 43 ± 0.68% | Platelet Count [4, 9]: 741600 ± 3476 per cu · mm of blood | WBC Count [4, 9]: 7410 ± 414.90 per cu · mm of blood | % Lymphocytes [4, 10]: 80.00 ± 1.92% | % Monocytes [4, 10]: 1.50 ± 0.34^ % | % Neutrophils [4, 10]: 7 ± 0.92% | Platelet Count [4, 10]: 647900 ± 26900 per cu · mm of blood | WBC Count [4, 10]: 1562 ± 145.90 per cu · mm of blood | % Lymphocytes [4, 11]: 72.00 ± 1.46 % | % Monocytes [4, 11]: 4.50 ± 0.34 % | % Neutrophils [4, 11]: 12.66 ± 0.66 % | Platelet Count [4, 11]: 653300 ± 26550 per cu · mm of blood | WBC Count [4, 11]: 4380 ± 333.30 per cu · mm of blood | Effect on % lymphocytes [4, 8]: significant (p<0.01) reduction in % lymphocytes | Effect on % monocytes [4, 8]: significantly reversed | Effect on platelet count [4, 8]: improved the platelet count significantly (p<0.001) | Effect on total WBC count [4, 8]: significantly (p<0.001) reversed the cyclophosphamide induced decrease in WBC count | Effect on % neutrophil ([4]; compared to cyclophosphamide/placebo control group, Example 9): significantly (p<0.01) alleviated the cyclophosphamide-induced neutropenia

B1: GCSF: glycoprotein that stimulates the bone marrow to produce granulocytes and stem cells; marketed formulation of Lupin limited (protein, UniProt P09919 31-207, looked up)
Granulocyte …: TPLGPASSLPQSFLLKCLEQVRKIQGDGAALQEKLVSECATYKLCHPEELVLLGHSLGIPWAPLSSCPSQALQLAGCLSQLHSGLFLYQGLLQALEGISPELGPTLDTLQLDVADFATTIWQQMEELGMAPALQPTQGAMPAFASAFQRRAGGVLVASHLQSFLEVSYRVLRHLAQP
modifications: filgrastim (Lupifil)
notes: glycoprotein that stimulates the bone marrow to produce granulocytes and stem cells; marketed formulation of Lupin limited
BUN (blood urea nitrogen) [1]: 9.633 mmol/L | SGOT Serum glutamic oxaloacetic transaminase [1]: 32.17 IU/L | SGPT (Serum glutamic pyruvic transaminase) [1]: 34.33 IU/L | Serum Creatinine [1]: 44.5 µM | Uric acid [1]: 26.33 mg/L | Effect on BUN level [1, 12]: significant (p<0.001) decrease in BUN level | Effect on SGOT level [1, 12]: significant (p<0.001) reduction in SGOT | Effect on serum creatinine level [1, 12]: significant (p<0.001) reduction in creatinine level | Effect on uric acid level [1, 12]: significant decrease in uric acid levels (p<0.001) | % Lymphocytes [2, 5]: 45.5% | % Monocytes [2, 5]: 6.00% | % Neutrophils [2, 5]: 41.33% | No of Platelets [2, 5]: 752200 per cu · mm of blood | Total WBC Count [2, 5]: 7255 per cu · mm of blood | % Lymphocytes [2, 6]: 83.5% | % Monocytes [2, 6]: 1.833% | % Neutrophils [2, 6]: 6.667% | No of Platelets [2, 6]: 645800 per cu · mm of blood | Total WBC Count [2, 6]: 2617 per cu · mm of blood | % Lymphocytes [2, 7]: 50.17% | % Monocytes [2, 7]: 5.167% | % Neutrophils [2, 7]: 36.67% | No of Platelets [2, 7]: 674900 per cu · mm of blood | Total WBC Count [2, 7]: 6030 per cu · mm of blood | Effect on % lymphocytes [2, 13]: significant (p<0.001) decrease in % lymphocytes | Effect on % monocytes [2, 13]: significantly (p<0.001) reversed | Effect on platelet count [2, 13]: significant (p<0.05) increase in platelet count | Effect on total WBC count [2, 13]: significantly (p<0.001) reversed the cyclophosphamide induced decrease in WBC count | Effect on AST [3, 8]: significant (p<0.001) reduction in AST | ALT (alanine aminotransferase) [3]: 36.16 ± 0.70 IU/L | AST (aspartate aminotransferase) [3]: 45.16 ± 2.72 IU/L | % Lymphocytes [4, 9]: 40.00 ± 3.22% | % Monocytes [4, 9]: 7.32 ± 0.42% | % Neutrophils [4, 9]: 42.16 ± 1.74% | Platelet Count [4, 9]: 732400 ± 7528 per cu · mm of blood | WBC Count [4, 9]: 7438 ± 626.20 per cu · mm of blood | % Lymphocytes [4, 10]: 82.50 ± 1.40% | % Monocytes [4, 10]: 1.32 ± 0.22% | % Neutrophils [4, 10]: 7.16 ± 0.48% | Platelet Count [4, 10]: 637100 ± 38470 per cu · mm of blood | WBC Count [4, 10]: 1580 ± 235.00 per cu · mm of blood | % Lymphocytes [4, 11]: 59.32 ± 2.24 % | % Monocytes [4, 11]: 5.66 ± 0.48 % | % Neutrophils [4, 11]: 26.00 ± 1.66 % | Platelet Count [4, 11]: 690300 ± 15510 per cu · mm of blood | WBC Count [4, 11]: 4518 ± 406.00 per cu · mm of blood | Effect on % lymphocytes [4, 8]: reversed cyclophosphamide-induced lymphocyte recruitment significantly (p<0.001) | Effect on platelet count [4, 8]: significant increase in platelet count | Effect on total WBC count [4, 8]: significantly (p<0.001) reversed the cyclophosphamide induced decrease in WBC count
